Target: T1, human EPOR ectodomain (ECD) fused to a human Fc domain (EPOR-Fc) (human, UniProt P19235 25-250)
T1 chain: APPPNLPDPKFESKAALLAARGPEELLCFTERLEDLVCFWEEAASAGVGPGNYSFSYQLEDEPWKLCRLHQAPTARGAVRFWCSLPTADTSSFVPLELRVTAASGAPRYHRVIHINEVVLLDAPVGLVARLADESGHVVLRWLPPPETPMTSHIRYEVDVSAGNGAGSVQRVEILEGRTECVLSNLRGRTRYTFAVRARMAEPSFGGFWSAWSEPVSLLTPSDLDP
Assay: ELISA

B1: Db-Fc 1.1 (Fc fusion)
chain 1: EVQLVESGGGLVQPGGSLRLSCAASGFNLRSYYMHWVRQAPGKGLEWVASISPYYSYTYYADSVKGRFTISADTSKNTAYLQMNSLRAEDTAVYYCARHGYGAMDYWGQGTLVTVSS
chain 2: DIQMTQSPSSLSASVGDRVTITCRASQSVSSAVAWYQQKPGKAPKLLIYSASSLYSGVPSRFSGSRSGTDFTLTISSLQPEDFATYYCQQSSYSLITFGQGTKVEIK
EC50: 0.9 nM
